Publication PMC3064781

Assays:
scNep1 (Emg1) [1] = biological target: T1, scNep1 (Emg1) (Saccharomyces cerevisiae, UniProt Q06287 1-252); assay: X-ray crystallography
scNep1 (Emg1) [2] = biological target: T1, scNep1 (Emg1); assay: 1:1 molar mix

GGGCUUCAACGCCC (structured_RNA) [14-base Nep1 RNA]
binding result (scNep1 (Emg1) [1]): binds | binding result (scNep1 (Emg1) [2]): binds
